# Assay results as given in the supplement of paper PMC9112550, “Optimization of the antimicrobial peptide Bac7 by deep mutational scanning” (BMC Biology, 2022).
# System: Escherichia coli TOP10
# Assay: shrunken log2 fold change of peptide-encoding DNA abundance (4.5 h post-induction vs induction); higher = less antimicrobial activity (less host growth inhibition)
# Conditions: time post-induction: 4.5 h; library: site-saturation at positions 5, 18, 19, 20
# 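Also: peptides expressed intracellularly from a pBAD plasmid library in pooled LB shake-flask culture, induced with 0.3% L-arabinose, DNA abundance read by NGS, three biological replicates, DESeq2 with apeglm shrinkage.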
row,Sequence,shrunken log2 fold change
1,RRIRYRPPRLPRPRPRPMAFPRP,-0.557
2,RRIRSRPPRLPRPRPRPLLQPRP,-0.227
3,RRIRSRPPRLPRPRPRPEKYPRP,-1.28
4,RRIRPRPPRLPRPRPRPYYTPRP,-0.379
5,RRIRGRPPRLPRPRPRPSTLPRP,0.152
6,RRIRQRPPRLPRPRPRPNVIPRP,-0.0189
7,RRIRGRPPRLPRPRPRPINPPRP,-0.0416
8,RRIRSRPPRLPRPRPRPVACPRP,0.271
9,RRIRDRPPRLPRPRPRPQFQPRP,-0.145
10,RRIRRRPPRLPRPRPRPSHQPRP,0.0351
11,RRIRMRPPRLPRPRPRPDNCPRP,0.00157
12,RRIRYRPPRLPRPRPRPTSGPRP,0.0452
13,RRIRTRPPRLPRPRPRPQNIPRP,-0.587
14,RRIRNRPPRLPRPRPRPPCVPRP,0.0341
15,RRIRRRPPRLPRPRPRPDKNPRP,0.0344
16,RRIRYRPPRLPRPRPRPIQRPRP,-0.00865
17,RRIRNRPPRLPRPRPRPAKCPRP,-0.384
18,RRIRSRPPRLPRPRPRPAPVPRP,0.269
19,RRIRIRPPRLPRPRPRPGAHPRP,-0.0753
20,RRIRWRPPRLPRPRPRPYDAPRP,-0.189
21,RRIRYRPPRLPRPRPRPVIIPRP,-0.156
22,RRIRQRPPRLPRPRPRPPTTPRP,-0.0101
23,RRIRFRPPRLPRPRPRPPKDPRP,0.248
24,RRIRWRPPRLPRPRPRPRHAPRP,0.0251
25,RRIRVRPPRLPRPRPRPCIGPRP,-0.8

row,Sequence,shrunken log2 fold change
1,RRIRPRPPRLPRPRPRPEKEPRP,-0.143
2,RRIRPRPPRLPRPRPRPRRVPRP,0.098
3,RRIRARPPRLPRPRPRPVKEPRP,-0.0493
4,RRIRVRPPRLPRPRPRPYSDPRP,-0.145
5,RRIRVRPPRLPRPRPRPIPNPRP,0.0329
6,RRIRARPPRLPRPRPRPRKQPRP,0.301
7,RRIRVRPPRLPRPRPRPREEPRP,0.493
8,RRIRIRPPRLPRPRPRPQLAPRP,-0.0191
9,RRIRDRPPRLPRPRPRPRIFPRP,-0.0459
10,RRIRIRPPRLPRPRPRPPGTPRP,0.029
11,RRIRARPPRLPRPRPRPTLIPRP,0.573
12,RRIRLRPPRLPRPRPRPVPMPRP,-0.0969
13,RRIRGRPPRLPRPRPRPLQWPRP,0.534
14,RRIRNRPPRLPRPRPRPTKVPRP,-0.153
15,RRIRGRPPRLPRPRPRPTCFPRP,1.14
16,RRIRYRPPRLPRPRPRPSMMPRP,-1.21
17,RRIRVRPPRLPRPRPRPWNWPRP,-0.00795
18,RRIRCRPPRLPRPRPRPEDPPRP,0.779
19,RRIRSRPPRLPRPRPRPLQHPRP,-0.00742
20,RRIRFRPPRLPRPRPRPNMVPRP,-0.124
21,RRIRNRPPRLPRPRPRPLDSPRP,-0.125
22,RRIRPRPPRLPRPRPRPFMPPRP,-0.793
23,RRIRMRPPRLPRPRPRPWTCPRP,-0.0398
24,RRIRDRPPRLPRPRPRPVTEPRP,0.0911
25,RRIRTRPPRLPRPRPRPGGFPRP,0.413
